In IntAct's records for PubMed 15150238:

B1: DnaA regulatory inactivator Hda (Escherichia coli (strain K12)), P69931 (parent)
chain: MNTPAQLSLPLYLPDDETFASFWPGDNSSLLAALQNVLRQEHSGYIYLWAREGAGRSHLLHAACAELSQRGDAVGYVPLDKRTWFVPEVLDGMEHLSLVCIDNIECIAGDELWEMAIFDLYNRILESGKTRLLITGDRPPRQLNLGLPDLASRLDWGQIYKLQPLSDEDKLQALQLRARLRGFELPEDVGRFLLKRLDREMRTLFMTLDQLDRASITAQRKLTIPFVKEILKL

Key:
dpo3b_ecoli dnaN, P0A988 [1] = variants of: B1; settings: with dpo3b_ecoli dnaN
dpo3b_ecoli dnaN, P0A988 [2] = variants of: B1; settings: with dpo3b_ecoli dnaN; remark: listed apart in the source

dpo3b_ecoli dnaN, P0A988, sequence (P0A988 whole entry): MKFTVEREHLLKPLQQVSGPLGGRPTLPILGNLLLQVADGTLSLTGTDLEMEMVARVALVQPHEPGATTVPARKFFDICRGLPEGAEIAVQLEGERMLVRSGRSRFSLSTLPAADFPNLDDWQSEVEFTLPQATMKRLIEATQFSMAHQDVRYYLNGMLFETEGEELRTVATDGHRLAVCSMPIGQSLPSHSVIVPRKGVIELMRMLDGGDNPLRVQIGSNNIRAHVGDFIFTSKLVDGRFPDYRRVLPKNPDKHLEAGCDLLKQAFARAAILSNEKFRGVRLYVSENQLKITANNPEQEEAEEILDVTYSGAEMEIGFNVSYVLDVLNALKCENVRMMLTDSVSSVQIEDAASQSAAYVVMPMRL

Variant: MNTPAQLSAALYLPDDETFASFWPGDNSSLLAALQNVLRQEHSGYIYLWAREGAGRSHLLHAACAELSQRGDAVGYVPLDKRTWFVPEVLDGMEHLSLVCIDNIECIAGDELWEMAIFDLYNRILESGKTRLLITGDRPPRQLNLGLPDLASRLDWGQIYKLQPLSDEDKLQALQLRARLRGFELPEDVGRFLLKRLDREMRTLFMTLDQLDRASITAQRKLTIPFVKEILKL [L9A;P10A]
- effect of a mutation on the interaction (dpo3b_ecoli dnaN, P0A988 [1]): decreasing interaction
- effect of a mutation on the interaction (dpo3b_ecoli dnaN, P0A988 [2]): disrupting interaction

Variant: MNTPAQASAPLYLPDDETFASFWPGDNSSLLAALQNVLRQEHSGYIYLWAREGAGRSHLLHAACAELSQRGDAVGYVPLDKRTWFVPEVLDGMEHLSLVCIDNIECIAGDELWEMAIFDLYNRILESGKTRLLITGDRPPRQLNLGLPDLASRLDWGQIYKLQPLSDEDKLQALQLRARLRGFELPEDVGRFLLKRLDREMRTLFMTLDQLDRASITAQRKLTIPFVKEILKL [L7A;L9A]
- effect of a mutation on the interaction (dpo3b_ecoli dnaN, P0A988 [1]): decreasing interaction
- effect of a mutation on the interaction (dpo3b_ecoli dnaN, P0A988 [2]): disrupting interaction
